What was measured:
[1] = target: T1, LbCas12a E981V (Lachnospiraceae bacterium ND2006); assay: cell_activity; WT 15.77; 50 nM RNP, HEK293, T7EI 48 h; PAM of site not stated
[2] = target: T2, LbCas12a K1121D (Lachnospiraceae bacterium ND2006); assay: as above
[3] = target: T3, LbCas12a P799V (Lachnospiraceae bacterium ND2006); assay: as above
[4] = target: T4, LbCas12a G146R (Lachnospiraceae bacterium ND2006); assay: as above
[5] = target: T5, LbCas12a T152K (Lachnospiraceae bacterium ND2006); assay: as above
[6] = target: T6, LbCas12a E795Q (Lachnospiraceae bacterium ND2006); assay: as above
[7] = target: T7, LbCas12a W890A (Lachnospiraceae bacterium ND2006); assay: as above
[8] = target: T8, LbCas12a S1020E (Lachnospiraceae bacterium ND2006); assay: as above
[9] = target: T9, LbCas12a R182V (Lachnospiraceae bacterium ND2006); assay: as above
[10] = target: T10, LbCas12a G146R/R182V/E795Q (RVQ) (Lachnospiraceae bacterium ND2006); assay: as above
[11] = target: T1, LbCas12a E981V; assay: cell_activity; WT 7.70; 50 nM RNP, HEK293, T7EI 48 h; PAM of site not stated
[12] = target: T2, LbCas12a K1121D; assay: as above
[13] = target: T3, LbCas12a P799V; assay: as above
[14] = target: T4, LbCas12a G146R; assay: as above
[15] = target: T5, LbCas12a T152K; assay: as above
[16] = target: T6, LbCas12a E795Q; assay: as above
[17] = target: T7, LbCas12a W890A; assay: as above
[18] = target: T8, LbCas12a S1020E; assay: as above
[19] = target: T9, LbCas12a R182V; assay: as above
[20] = target: T10, LbCas12a G146R/R182V/E795Q (RVQ); assay: as above

Binder | activity [1] | activity [2] | activity [3] | activity [4] | activity [5] | activity [6] | activity [7] | activity [8] | activity [9] | activity [10] | activity [11] | activity [12] | activity [13] | activity [14] | activity [15] | activity [16] | activity [17] | activity [18] | activity [19] | activity [20]
crRNA-4 HPRT 38486-S-23 ; HPRT 38486-S protospacer (DNA equivalent of crRNA-4 spacer) (ssRNA ; dsDNA) RNA: UAAUUUCUACUAAGUGUAGAUUUGUAGGAUAUGCCCUUGACUAU DNA 1: TTGTAGGATATGCCCTTGACTAT DNA 2: ATAGTCAAGGGCATATCCTACAA | 26.4 % editing | 6.87 % editing | 30.7 % editing | 32.2 % editing | 18.6 % editing | 26.8 % editing | 4.27 % editing | 7.6 % editing | 29.1 % editing | 51.5 % editing |  |  |  |  |  |  |  |  |  | 
crRNA-2 HPRT 38094-S-23 ; HPRT 38094-S protospacer (DNA equivalent of crRNA-2 spacer) (ssRNA ; dsDNA) RNA: UAAUUUCUACUAAGUGUAGAUAUAGUCUUUCCUUGGGUGUGUUA DNA 1: ATAGTCTTTCCTTGGGTGTGTTA DNA 2: TAACACACCCAAGGAAAGACTAT |  |  |  |  |  |  |  |  |  |  | 13.8 % editing | 3.65 % editing | 16.7 % editing | 16.2 % editing | 20.9 % editing | 9.77 % editing | 3.8 % editing | 4.27 % editing | 10.4 % editing | 32.8 % editing

Source: US20210348144 (published 2021)
